Laboratory results taken from the supplement of paper PMC7877785.
± gives the uncertainty stated by the source.

Assay: self-splicing fitness, log relative to wild type (ln ratio); higher = more splicing; Tetrahymena group I intron in knt gene, E. coli kanamycin selection, DiMSum; sequences stand for … in CUCUCU…GGAGGGAAAAGUUAUCAGGCAUGCACCUGGUAGCUAGUCUUUAAACCAAUAGAUUGCAUCGGUUUAAAAGGCAAGACCGUCAAAUUGCGGGAAAGGGGUCAACAGCCGUUCAGUACCAAGUCUCAGGGGAAACUUUGAGAUGGCCUUGCAAAGGGUAUGGUAAUAAGCUGACGGACAUGGUCCUAACCACGCAGCCAAGUCCUAAGUCAACAGAUCUUCUGUUGAUAUGGAUGCAGUUCACAGACUAAAUGUCGGUCGGGGAAGAUGUAUUCUUCUCAUAAGAUAUAGUCGGACCUCUCCUUAAUGGGAGCUAGCGGAUGAAGUGAUGCAACACUGGAGCCGCUGGGAACUAAUUUGUAUGCGAAAGUAUAUUGAUUAGUUUUGGAGUACUCGUGGUCG
Outline: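 Colonies from six replicate transformations of E. coli BL21(DE3) were pooled and amplicon-sequenced on an Illumina HiSeq 2500. The library placed an intron with all eight P1ex-region nucleotides randomised inside the knt kanamycin-resistance gene on pET-22b(+), and cells grew overnight at 37°C or 30°C on LB agar with or without 25 μg/mL kanamycin (plus 100 μg/mL carbenicillin, 50 μM IPTG, 0.2% rhamnose). Fitness is the DiMSum error-weighted combination of wild-type-normalised replicate fold changes, kanamycin versus none.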

Sequence | self-splicing fitness (ln) (30 °C) | self-splicing fitness (ln) (37 °C)
CAAUAGCAAUAUUACGCGUU | -2.98 ± 0.09 | -2.42 ± 0.1
CAAUAGCAAUAUUACGGAGC | -2.48 ± 0.22 | -2.53 ± 0.45
CAAUAGCAAUAUUACGGAUC | -3.15 ± 0.37 | 
CAAUAGCAAUAUUACGGGCA | -2.46 ± 0.28 | -2.89 ± 0.25
CAAUAGCAAUAUUACGGUGC | -3.75 ± 0.23 | -3.67 ± 0.29
CAAUAGCAAUAUUACGUAAA | -2.68 ± 0.28 | -2.27 ± 0.4
CAAUAGCAAUAUUACGUACG | -0.451 ± 0.063 | -0.069 ± 0.078
CAAUAGCAAUAUUACGUCAC | -2.04 ± 0.2 | -2.71 ± 0.43
CAAUAGCAAUAUUACGUGAC | -3.84 ± 0.25 | -2.21 ± 0.22
CAAUAGCAAUAUUACGUGCA | -2.72 ± 0.19 | -1.27 ± 0.15
CAAUAGCAAUAUUACGUGUC | -3.97 ± 0.18 | -3.28 ± 0.21
CAAUAGCAAUAUUACGUUAA | -2.95 ± 0.18 | -2.8 ± 0.23
CACAAGCAAUAUUACGAGAC | -3.08 ± 0.17 | -2.51 ± 0.17
CACAAGCAAUAUUACGAGAG | -3.2 ± 0.12 | -1.32 ± 0.085
CACAAGCAAUAUUACGAUAA | -4.26 ± 0.33 | -2.22 ± 0.16
CACAAGCAAUAUUACGAUCA | -2.43 ± 0.11 | -1.55 ± 0.12
CACAAGCAAUAUUACGCAAA | -3.29 ± 0.23 | -2.46 ± 0.28
CACAAGCAAUAUUACGCACG | -0.378 ± 0.067 | -0.684 ± 0.075
CACAAGCAAUAUUACGCGGC | -3.25 ± 0.19 | -2.98 ± 0.23
CACAAGCAAUAUUACGCGGG | -3 ± 0.14 | -0.984 ± 0.12
CACAAGCAAUAUUACGCUUG | -3.66 ± 0.18 | -1.77 ± 0.15
CACAAGCAAUAUUACGGAAU | -4.1 ± 0.21 | -2.28 ± 0.16
CACAAGCAAUAUUACGGCCC | -2.49 ± 0.22 | -1.82 ± 0.31
CACAAGCAAUAUUACGGCUA | -2.02 ± 0.12 | -1.26 ± 0.11
CACAAGCAAUAUUACGGGAG | -1.55 ± 0.065 | -1.46 ± 0.076
CACAAGCAAUAUUACGGUCG | 0.139 ± 0.054 | 0.219 ± 0.064

Sequence | self-splicing fitness (ln) (30 °C) | self-splicing fitness (ln) (37 °C)
CACAAGCAAUAUUACGGUCU | -2.76 ± 0.1 | -1.99 ± 0.12
CACAAGCAAUAUUACGUACA | -3.03 ± 0.1 | -1.46 ± 0.1
CACAAGCAAUAUUACGUAGC | -4 ± 0.12 | -2.59 ± 0.13
CACAAGCAAUAUUACGUAUC | -4.88 ± 0.25 | -2.19 ± 0.15
CACAAGCAAUAUUACGUGAA | -4.27 ± 0.25 | -2.39 ± 0.21
CACAAGCAAUAUUACGUUAC | -4.46 ± 0.34 | -3.12 ± 0.36
CACCAGCAAUAUUACGAAUA | -3.93 ± 0.21 | -2.62 ± 0.16
CACCAGCAAUAUUACGACCC | -3.82 ± 0.25 | -2.98 ± 0.28
CACCAGCAAUAUUACGACGC | -3.22 ± 0.19 | -1.39 ± 0.16
CACCAGCAAUAUUACGACGU | -2.58 ± 0.096 | -1.11 ± 0.099
CACCAGCAAUAUUACGAGGG | -2.81 ± 0.088 | -1.79 ± 0.093
CACCAGCAAUAUUACGAGGU | -3.22 ± 0.12 | -2.53 ± 0.16
CACCAGCAAUAUUACGAUAA | -4.88 ± 0.31 | -2.14 ± 0.19
CACCAGCAAUAUUACGCAAA | -4.2 ± 0.27 | -2.99 ± 0.2
CACCAGCAAUAUUACGCCAG | -0.583 ± 0.075 | 0.205 ± 0.097
CACCAGCAAUAUUACGCCCG | -0.197 ± 0.14 | 0.343 ± 0.19
CACCAGCAAUAUUACGCUUG | -1.06 ± 0.052 | -0.22 ± 0.069
CACCAGCAAUAUUACGGAGU | -3.74 ± 0.18 | -2.54 ± 0.15
CACCAGCAAUAUUACGGCCC | -1.8 ± 0.17 | -0.352 ± 0.19
CACCAGCAAUAUUACGGGGG | -3.36 ± 0.11 | -2.64 ± 0.18
CACCAGCAAUAUUACGGUAG | -1.97 ± 0.063 | -1.69 ± 0.09
CACCAGCAAUAUUACGGUCA | -0.569 ± 0.05 | 0.174 ± 0.062
CACCAGCAAUAUUACGUAAG | 0.114 ± 0.041 | 0.336 ± 0.061
CACCAGCAAUAUUACGUACC | -4.01 ± 0.43 | -1.84 ± 0.33
CACCAGCAAUAUUACGUAGC | -4.18 ± 0.17 | -2.41 ± 0.14
CACCAGCAAUAUUACGUCGA | -1.89 ± 0.086 | -0.942 ± 0.088

Sequence | self-splicing fitness (ln) (30 °C) | self-splicing fitness (ln) (37 °C)
CACCAGCAAUAUUACGUGCG | -0.627 ± 0.04 | -0.299 ± 0.056
CACCAGCAAUAUUACGUUAG | -0.512 ± 0.048 | 0.279 ± 0.064
CACCAGCAAUAUUACGUUAU | -3.86 ± 0.12 | -3.32 ± 0.15
CACCAGCAAUAUUACGUUUG | -0.595 ± 0.043 | -0.00269 ± 0.064
CACGAGCAAUAUUACGAAGU | -1.68 ± 0.13 | -2.23 ± 0.19
CACGAGCAAUAUUACGAAUU | -4.81 ± 0.41 | -2.25 ± 0.21
CACGAGCAAUAUUACGACGG | -1.6 ± 0.13 | -0.392 ± 0.14
CACGAGCAAUAUUACGACGU | -3.25 ± 0.17 | -3.34 ± 0.23
CACGAGCAAUAUUACGACUA | -2.71 ± 0.21 | -1.85 ± 0.15
CACGAGCAAUAUUACGAGAA |  | -1.61 ± 0.44
CACGAGCAAUAUUACGAGAC | -2.99 ± 0.2 | -1.89 ± 0.3
CACGAGCAAUAUUACGAUAG | -3.14 ± 0.15 | -1.6 ± 0.18
CACGAGCAAUAUUACGCACA | -2.74 ± 0.19 | -1.17 ± 0.15
CACGAGCAAUAUUACGCAUC | -1.74 ± 0.34 | 
CACGAGCAAUAUUACGCCCG | -1.88 ± 0.29 | -1.9 ± 0.28
CACGAGCAAUAUUACGCGAC |  | -2.76 ± 0.27
CACGAGCAAUAUUACGCGCC |  | -0.83 ± 0.48
CACGAGCAAUAUUACGCGCG | -2.9 ± 0.24 | -1.25 ± 0.18
CACGAGCAAUAUUACGCGGG | -4.05 ± 0.26 | -2.88 ± 0.26
CACGAGCAAUAUUACGCGUG | -2.79 ± 0.19 | -2.97 ± 0.38
CACGAGCAAUAUUACGGGAU | -3.52 ± 0.28 | -2.33 ± 0.21
CACGAGCAAUAUUACGGGCA | -2.84 ± 0.31 | 
CACGAGCAAUAUUACGGGUA | -3.26 ± 0.18 | -2.02 ± 0.16
CACGAGCAAUAUUACGUCGU | -2.05 ± 0.14 | -3.43 ± 0.24
CACGAGCAAUAUUACGUCUG | -2.32 ± 0.095 | -0.929 ± 0.092
